In patent US6541450B1, “Parathyroid hormone analogues for the treatment of osteoporosis” (National Research Council of Canada, priority 1994, dated 2003):
Entries after “also recorded” stand apart in the source; their conditions may differ. Where a SMILES comes first, the peptide text is derived from it. Bridges are numbered along the chain shown (N, C = ends). Where no end group is shown, it is not given here. [ ]: non-standard residue; d: D form. Nle = CCCC[C@H](N)C(=O)O

B1: [Ala^27]cyclo(Glu^22-Lys^26)-hPTH-(1-31)-NH2 (peptide)
peptide: SVSEIQLMHNLGKHLNSMERVEWLRKALQDV-NH2
modifications: lactam 22-26; N-terminus assumed
SMILES: CC[C@H](C)[C@H](NC(=O)[C@H](CCC(=O)O)NC(=O)[C@H](CO)NC(=O)[C@@H](NC(=O)[C@@H](N)CO)C(C)C)C(=O)N[C@@H](CCC(N)=O)C(=O)N[C@@H](CC(C)C)C(=O)N[C@@H](CCSC)C(=O)N[C@@H](Cc1c[nH]cn1)C(=O)N[C@@H](CC(N)=O)C(=O)N[C@@H](CC(C)C)C(=O)NCC(=O)N[C@@H](CCCCN)C(=O)N[C@@H](Cc1c[nH]cn1)C(=O)N[C@@H](CC(C)C)C(=O)N[C@@H](CC(N)=O)C(=O)N[C@@H](CO)C(=O)N[C@@H](CCSC)C(=O)N[C@@H](CCC(=O)O)C(=O)N[C@@H](CCCNC(=N)N)C(=O)N[C@H](C(=O)N[C@H]1CCC(=O)NCCCC[C@@H](C(=O)N[C@@H](C)C(=O)N[C@@H](CC(C)C)C(=O)N[C@@H](CCC(N)=O)C(=O)N[C@@H](CC(=O)O)C(=O)N[C@H](C(N)=O)C(C)C)NC(=O)[C@H](CCCNC(=N)N)NC(=O)[C@H](CC(C)C)NC(=O)[C@H](Cc2c[nH]c3ccccc23)NC1=O)C(C)C
B2: [Nle^27]cyclo(Glu^22-Lys^26)-hPTH-(1-31)-NH2 (peptide)
peptide: SVSEIQLMHNLGKHLNSMERVEWLRK[Nle]LQDV-NH2
modifications: lactam 22-26; N-terminus assumed
SMILES: CCCC[C@H](NC(=O)[C@@H]1CCCCNC(=O)CC[C@H](NC(=O)[C@@H](NC(=O)[C@H](CCCNC(=N)N)NC(=O)[C@H](CCC(=O)O)NC(=O)[C@H](CCSC)NC(=O)[C@H](CO)NC(=O)[C@H](CC(N)=O)NC(=O)[C@H](CC(C)C)NC(=O)[C@H](Cc2c[nH]cn2)NC(=O)[C@H](CCCCN)NC(=O)CNC(=O)[C@H](CC(C)C)NC(=O)[C@H](CC(N)=O)NC(=O)[C@H](Cc2c[nH]cn2)NC(=O)[C@H](CCSC)NC(=O)[C@H](CC(C)C)NC(=O)[C@H](CCC(N)=O)NC(=O)[C@@H](NC(=O)[C@H](CCC(=O)O)NC(=O)[C@H](CO)NC(=O)[C@@H](NC(=O)[C@@H](N)CO)C(C)C)[C@@H](C)CC)C(C)C)C(=O)N[C@@H](Cc2c[nH]c3ccccc23)C(=O)N[C@@H](CC(C)C)C(=O)N[C@@H](CCCNC(=N)N)C(=O)N1)C(=O)N[C@@H](CC(C)C)C(=O)N[C@@H](CCC(N)=O)C(=O)N[C@@H](CC(=O)O)C(=O)N[C@H](C(N)=O)C(C)C
B3: [Nle^8,18, Leu^27]cyclo(Glu^22-Lys^26)-hPTH-(1-31)-NH2 (peptide)
peptide: SVSEIQL[Nle]HNLGKHLNS[Nle]ERVEWLRKLLQDV-NH2
modifications: lactam 22-26; N-terminus assumed
SMILES: CCCC[C@H](NC(=O)[C@H](CO)NC(=O)[C@H](CC(N)=O)NC(=O)[C@H](CC(C)C)NC(=O)[C@H](Cc1c[nH]cn1)NC(=O)[C@H](CCCCN)NC(=O)CNC(=O)[C@H](CC(C)C)NC(=O)[C@H](CC(N)=O)NC(=O)[C@H](Cc1c[nH]cn1)NC(=O)[C@H](CCCC)NC(=O)[C@H](CC(C)C)NC(=O)[C@H](CCC(N)=O)NC(=O)[C@@H](NC(=O)[C@H](CCC(=O)O)NC(=O)[C@H](CO)NC(=O)[C@@H](NC(=O)[C@@H](N)CO)C(C)C)[C@@H](C)CC)C(=O)N[C@@H](CCC(=O)O)C(=O)N[C@@H](CCCNC(=N)N)C(=O)N[C@H](C(=O)N[C@H]1CCC(=O)NCCCC[C@@H](C(=O)N[C@@H](CC(C)C)C(=O)N[C@@H](CC(C)C)C(=O)N[C@@H](CCC(N)=O)C(=O)N[C@@H](CC(=O)O)C(=O)N[C@H](C(N)=O)C(C)C)NC(=O)[C@H](CCCNC(=N)N)NC(=O)[C@H](CC(C)C)NC(=O)[C@H](Cc2c[nH]c3ccccc23)NC1=O)C(C)C
B4: cyclo(Glu^22-Lys^26)-hPTH-(1-31)-NH2 (peptide)
peptide: SVSEIQLMHNLGKHLNSMERVEWLRKKLQDV-NH2
modifications: lactam 22-26; N-terminus assumed
SMILES: CC[C@H](C)[C@H](NC(=O)[C@H](CCC(=O)O)NC(=O)[C@H](CO)NC(=O)[C@@H](NC(=O)[C@@H](N)CO)C(C)C)C(=O)N[C@@H](CCC(N)=O)C(=O)N[C@@H](CC(C)C)C(=O)N[C@@H](CCSC)C(=O)N[C@@H](Cc1c[nH]cn1)C(=O)N[C@@H](CC(N)=O)C(=O)N[C@@H](CC(C)C)C(=O)NCC(=O)N[C@@H](CCCCN)C(=O)N[C@@H](Cc1c[nH]cn1)C(=O)N[C@@H](CC(C)C)C(=O)N[C@@H](CC(N)=O)C(=O)N[C@@H](CO)C(=O)N[C@@H](CCSC)C(=O)N[C@@H](CCC(=O)O)C(=O)N[C@@H](CCCNC(=N)N)C(=O)N[C@H](C(=O)N[C@H]1CCC(=O)NCCCC[C@@H](C(=O)N[C@@H](CCCCN)C(=O)N[C@@H](CC(C)C)C(=O)N[C@@H](CCC(N)=O)C(=O)N[C@@H](CC(=O)O)C(=O)N[C@H](C(N)=O)C(C)C)NC(=O)[C@H](CCCNC(=N)N)NC(=O)[C@H](CC(C)C)NC(=O)[C@H](Cc2c[nH]c3ccccc23)NC1=O)C(C)C
B5: [Ile^27]cyclo(Glu^22-Lys^26)-hPTH-(1-31)-NH2 (peptide)
peptide: SVSEIQLMHNLGKHLNSMERVEWLRKILQDV-NH2
modifications: lactam 22-26; N-terminus assumed
SMILES: CC[C@H](C)[C@H](NC(=O)[C@@H]1CCCCNC(=O)CC[C@H](NC(=O)[C@@H](NC(=O)[C@H](CCCNC(=N)N)NC(=O)[C@H](CCC(=O)O)NC(=O)[C@H](CCSC)NC(=O)[C@H](CO)NC(=O)[C@H](CC(N)=O)NC(=O)[C@H](CC(C)C)NC(=O)[C@H](Cc2c[nH]cn2)NC(=O)[C@H](CCCCN)NC(=O)CNC(=O)[C@H](CC(C)C)NC(=O)[C@H](CC(N)=O)NC(=O)[C@H](Cc2c[nH]cn2)NC(=O)[C@H](CCSC)NC(=O)[C@H](CC(C)C)NC(=O)[C@H](CCC(N)=O)NC(=O)[C@@H](NC(=O)[C@H](CCC(=O)O)NC(=O)[C@H](CO)NC(=O)[C@@H](NC(=O)[C@@H](N)CO)C(C)C)[C@@H](C)CC)C(C)C)C(=O)N[C@@H](Cc2c[nH]c3ccccc23)C(=O)N[C@@H](CC(C)C)C(=O)N[C@@H](CCCNC(=N)N)C(=O)N1)C(=O)N[C@@H](CC(C)C)C(=O)N[C@@H](CCC(N)=O)C(=O)N[C@@H](CC(=O)O)C(=O)N[C@H](C(N)=O)C(C)C
B6: [Tyr^27]cyclo(Glu^22-Lys^26)-hPTH-(1-31)-NH2 (peptide)
peptide: SVSEIQLMHNLGKHLNSMERVEWLRKYLQDV-NH2
modifications: lactam 22-26; N-terminus assumed
SMILES: CC[C@H](C)[C@H](NC(=O)[C@H](CCC(=O)O)NC(=O)[C@H](CO)NC(=O)[C@@H](NC(=O)[C@@H](N)CO)C(C)C)C(=O)N[C@@H](CCC(N)=O)C(=O)N[C@@H](CC(C)C)C(=O)N[C@@H](CCSC)C(=O)N[C@@H](Cc1c[nH]cn1)C(=O)N[C@@H](CC(N)=O)C(=O)N[C@@H](CC(C)C)C(=O)NCC(=O)N[C@@H](CCCCN)C(=O)N[C@@H](Cc1c[nH]cn1)C(=O)N[C@@H](CC(C)C)C(=O)N[C@@H](CC(N)=O)C(=O)N[C@@H](CO)C(=O)N[C@@H](CCSC)C(=O)N[C@@H](CCC(=O)O)C(=O)N[C@@H](CCCNC(=N)N)C(=O)N[C@H](C(=O)N[C@H]1CCC(=O)NCCCC[C@@H](C(=O)N[C@@H](Cc2ccc(O)cc2)C(=O)N[C@@H](CC(C)C)C(=O)N[C@@H](CCC(N)=O)C(=O)N[C@@H](CC(=O)O)C(=O)N[C@H](C(N)=O)C(C)C)NC(=O)[C@H](CCCNC(=N)N)NC(=O)[C@H](CC(C)C)NC(=O)[C@H](Cc2c[nH]c3ccccc23)NC1=O)C(C)C
B7: α-acetyl-[Leu^27]cyclo(Glu^22-Lys^26)-hPTH-(1-31)-NH2 (peptide)
peptide: Ac-SVSEIQLMHNLGKHLNSMERVEWLRKLLQDV-NH2
modifications: lactam 22-26
SMILES: CC[C@H](C)[C@H](NC(=O)[C@H](CCC(=O)O)NC(=O)[C@H](CO)NC(=O)[C@@H](NC(=O)[C@H](CO)NC(C)=O)C(C)C)C(=O)N[C@@H](CCC(N)=O)C(=O)N[C@@H](CC(C)C)C(=O)N[C@@H](CCSC)C(=O)N[C@@H](Cc1c[nH]cn1)C(=O)N[C@@H](CC(N)=O)C(=O)N[C@@H](CC(C)C)C(=O)NCC(=O)N[C@@H](CCCCN)C(=O)N[C@@H](Cc1c[nH]cn1)C(=O)N[C@@H](CC(C)C)C(=O)N[C@@H](CC(N)=O)C(=O)N[C@@H](CO)C(=O)N[C@@H](CCSC)C(=O)N[C@@H](CCC(=O)O)C(=O)N[C@@H](CCCNC(=N)N)C(=O)N[C@H](C(=O)N[C@H]1CCC(=O)NCCCC[C@@H](C(=O)N[C@@H](CC(C)C)C(=O)N[C@@H](CC(C)C)C(=O)N[C@@H](CCC(N)=O)C(=O)N[C@@H](CC(=O)O)C(=O)N[C@H](C(N)=O)C(C)C)NC(=O)[C@H](CCCNC(=N)N)NC(=O)[C@H](CC(C)C)NC(=O)[C@H](Cc2c[nH]c3ccccc23)NC1=O)C(C)C

Columns and labels:
[1] = system: anesthetized female Sprague-Dawley rats; experiment: Hypotensive effect, tail artery pressure in anaesthetized rats
Description: Female Sprague-Dawley rats (weighing over 290 g) were anaesthetized with intraperitoneally injected sodium pentobarbital (65 mg/kg body weight). Rectal temperature was monitored with a YS1402 thermistor (Yellow Springs Instrument Co., Inc. Yellow Springs, Ohio) and maintained between 36.0 and 38.5° C. throughout the experiment. Ear pinna temperature was also monitored using a YSi banjo thermistor. The tail artery was exposed to cannulated with a Jelco 25-gIV catheter (Johnson and Johnson Medical Inc., Arlington, Tex.) and connected to a Statham pressure transducer, the signals from which were recorded digitally with a Biopac Systems MP100 Monitor (Harvard Instruments, Saint Laurent, QC, Canada). For intravenous injection of PTH or one of its fragments, a femoral vein was also exposed. After surgery, the rat was allowed to stabilize for 8 min after which PTH or one of its fragments (dissolved in acidified saline containing 0.001 N HCl) was injected into the femoral vein or under the skin of the abdomen. Data were collected for 12 min after intravenous injection or for 22 min after subcutaneous injection.

PTH receptor = PTH receptor (rat (ROS 17/2 rat osteosarcoma cell …, UniProt P25961)); experiment: cell-based or functional assay
[2] = intravenous, 0.8 nmol/100 g of body weight

Molecule | Adenylyl Cyclase (EC50) (PTH receptor) [nM] | other results
CC[C@H](C)[C@H](NC(=O)[C@H](CCC(=O)O)NC(=O)[C@H](CO)NC(=O)[C@@H](NC(=O)[C@@H](N)CO)C(C)C)C(=O)N[C@@H](CCC(N)=O)C(=O)N[C@@H](CC(C)C)C(=O)N[C@@H](CCSC)C(=O)N[C@@H](Cc1c[nH]cn1)C(=O)N[C@@H](CC(N)=O)C(=O)N[C@@H](CC(C)C)C(=O)NCC(=O)N[C@@H](CCCCN)C(=O)N[C@@H](Cc1c[nH]cn1)C(=O)N[C@@H](CC(C)C)C(=O)N[C@@H](CC(N)=O)C(=O)N[C@@H](CO)C(=O)N[C@@H](CCSC)C(=O)N[C@@H](CCC(=O)O)C(=O)N[C@@H](CCCNC(=N)N)C(=O)N[C@H](C(=O)N[C@H]1CCC(=O)NCCCC[C@@H](C(=O)N[C@@H](CC(C)C)C(=O)N[C@@H](CC(C)C)C(=O)N[C@@H](CCC(N)=O)C(=O)N[C@@H](CC(=O)O)C(N)=O)NC(=O)[C@H](CCCNC(=N)N)NC(=O)[C@H](CC(C)C)NC(=O)[C@H](Cc2c[nH]c3ccccc23)NC1=O)C(C)C [compound 8, [Leu^27]cyclo(Glu^22Lys^26)-hPTH-(1-30)-NH2] (H-SVSEIQLMHNLGKHLNSMERVEWLRKLLQD-NH2; lactam 22-26) |  | total blood pressure drop versus other analogues ([1]; subcutaneously or intravenously, 0.8 nmol/100 g of body weight): not significantly different (p>0.05)
hPTH-(7-84) [reference compound] |  | hypotensive action, in words ([1]; intravenous injection): not significantly hypotensive; also recorded: did not significantly affect tail artery pressure; reduction of tail artery pressure [1, 2]: 3.28±1.0 mm Hg; time to maximum drop in tail artery pressure [1, 2]: 9.8 ± 2.0 min
SVSEIQLMHNLGKHLNSMERVEWLRKKLQDV-NH2 [hPTH-(1-31)-NH2] | 20 | 
B1 | 9 | 
B2 | 9 | 
B3 | 6 | 
B4 | 17 | 
B5 | 9 | 
B6 | 9 | 
B7 | 24 | 
